# Results published in patent US20260176377A1 (Hoffmann-La Roche, published 2026).
# Target: T1, extracellular domain (ECD) of human IL-7Rα fused to biotinylated Fc knob-into-hole (P1AI1009) (human, UniProt P0DOX5 223-448 = IgG part, biotinylated at C-terminal AviTag)
# T1 construct: also called human IL-7Rα-Fc; human IL-7Rα antigen
# Experiment: ELISA, soluble VHH supernatants on neutravidin plates with biotinylated IL-7Rα-Fc versus biotinylated Fc, anti-His-HRP
# Description: Round 3 and round 4 enrichment libraries were screened for target specificity vs Fc specificity by ELISA. Individual VHH clones were expressed in 1 ml E. coli cultures in a 96-well plate and supernatants containing soluble VHH were screened for specificity by ELISA. Supernatants were transferred to neutravidin 96-well plates coated with biotinylated Fc (P1AE6073) or target Fc-tagged biotinylated antigen (P1AI1009). Following incubation for 1 hour at 20° C., plates were washed 3 times with PBST and 3 times with PBS. HRP-conjugated anti-His antibody (Sigma, Cat. No: A7058) was added to wells at 1:2000 dilution and plates were incubated for 1 hour at 20° C. Plates were washed 3 times with PBST followed by 3 washes with PBS. Plates were developed by adding 1-Step Ultra TMB-ELISA substrate (Thermo Fisher Scientific, Cat. No: 34028) and reactions were quenched with sulfuric acid. Absorbance at 450 nm was measured using a Tecan infinite M1000 Pro and reference absorbance values were measured at 650 nm. Reference-subtracted absorbance values at 450 nm were represented as stacked bar charts for round 3 library 1 and library 2 (FIG. 40A and B, respectively) and round 4 library 1 and library 2 (FIG. 40C and D, respectively). […] 16 target-specific VHH were selected and subsequently cloned into bispecific heavy chain antibody formats.
row,Binder,binding result
1,"IL-7Rα_1 VHH (VHH, soluble VHH, detected with anti-His antibody) VHH: QVQLVESGGGLVQPGGSLRLSCAASGFTFSQRIMSWYRQAPGKERELVASISPFGDGTRYADSVKGRFTISRDNARNQLYLQMNTLKPEDTAVYYCNKRNLEISDDWGQGTQVTVSS",binds
2,"IL-7Rα_5 VHH (VHH, soluble VHH, detected with anti-His antibody) VHH: QVQLVESGGGLVQPGGSLRLSCAASGFTFSQRIMSWYRQAPGKEHELVASISPFGDGTRYADSVKGRFTISRDNARNQLYLQMNSLEFEDTAVYYCNKRNLDVSDDWGQGTQVTVSS",binds
3,"IL-7Rα_4 VHH (VHH, soluble VHH, detected with anti-His antibody) VHH: QVQLVESGGGLVQPGGSLRLSCTTSGFTFTTYAMKWVRQAPGKGLEWVAFISPAGGITDYADSVKGRFTISRDNAKETLYLRMDSLKPEDTAVYYCARGDSDTNNNRGQGTQVTVSS",binds
4,"IL-7Rα_2 VHH (VHH, soluble VHH, detected with anti-His antibody) VHH: QVQLVESGGGLVQPGGSLRLSCEVSGIRFSLRNMHWYRQASGRQREWVATITAGGVTGYRDSVKGRFTISRDNAKNTVDLQMNGLQLEDTAVYYCNHGDTAYWGQGTQVTVSS",binds
5,"IL-7Rα_13 VHH (VHH, soluble VHH, detected with anti-His antibody) VHH: QVQLVESGGGLVRPGGSLRLACAASGIRFSLRNMHWYRQASGRQREWVATITAGGVTGYRDSVKGRFTISRDNAKNTVDLQMNGLQLEDTAVYYCNHGDTAYWGQGTQVTVSS",binds
6,"IL-7Rα_8 VHH (VHH, soluble VHH, detected with anti-His antibody) VHH: QVQLVESGGGLVQPGGSLRLSCAASGFTISSWSMKWVRQAPGKGPEWVSYISPGGGSLDYLDSVKGRFTISRDNAKNTVYLQMSNLKSEDTALYWCATGTGPTRGQGTQVTVSS",binds
7,"IL-7Rα_9 VHH (VHH, soluble VHH, detected with anti-His antibody) VHH: QVQLVESGGGLVQPGGSLRLSCAASGFTISTWSMKWVRQAPGKGPEWVSYISPGGTSLDYQDSVKGRFTISRDNAKNTVYLQMNNLKSEDTALYWCATGTGETRGQGTQVTVSS",binds
8,"IL-7Rα_11 VHH (VHH, soluble VHH, detected with anti-His antibody) VHH: QVQLVESGGGLVQPGGSLRLSCEASGFTISSWSMKWVRQAPGKGPEWVSYISPGGGSLDYHHSVKGRFTISRDNARNTVYLQMSNLQSEDTALYWCATGTGETRGQGTQVTVSS",binds

# Other lines, results leading:
row,binding result,Binder
1,binds,"IL-7Rα_7 VHH (VHH, soluble VHH, detected with anti-His antibody) VHH: QVQLVESGGGLVQPGGSLRLSCAASGFTFSNYAMSWYRQAPGKERELVASISVFGGGTNYADSVKGRFTISRDNAKNTVYLQMNSLKPEDSAVYYCNKRRYDDYWGQGTQVTVSS"
2,binds,"IL-7Rα_14 VHH (VHH, soluble VHH, detected with anti-His antibody) VHH: QVQLVESGGGLVQPGGSLRLSCAASGFTFSQRIMSWYRQAPGKERELVASVSPFGDGTRYADSVKGRFTISRDNAKSQLYLQMNNLKFEDTAVYYCNKRNLEISDAWGQGTQVTVSS"
3,binds,"IL-7Rα_12 VHH (VHH, soluble VHH, detected with anti-His antibody) VHH: QVQLVESGGGLVQPGGSLRLSCAASGFTISSRSMKWVRQAPGKGPEWVSYISPGGGTVDYQDSVKGRFTISRDNAKNTVYLQMSNLKSEDTALYWCATGTGPTRGRGTQVTVSS"
4,binds,"IL-7Rα_15 VHH (VHH, soluble VHH, detected with anti-His antibody) VHH: QVQLVESGGGLVQPGGSLRLSCAASGFTISSWSMKWVRQAPGKGPEWVSYISPGGGSLDYHHSVKGRFTISRDNARNTVYLQMSNLQSEDTALYWCATGTGETRGQGTQVTVSS"
